Consider 3 molecules from article PMC4893198.

The target in one assay is OST-NLS-mCherry-NRF2 (UniProt Q16236). As to the kind of experiment: pull-down.
For another assay, the target named is OST-progerin (human) (UniProt P02545). The assay can be described thus: pull-down.

In the case of “HA-progerin (from UniProt P02545-6 1-614) (natural protein)”, the interaction relative to WT lamin A with OST-NLS-mCherry-NRF2 stood at 248%.

B1: FLAG-NLS-NRF2 (natural protein)
chain: MMDLELPPPGLPSQQDMDLIDILWRQDIDLGVSREVFDFSQRRKEYELEKQKKLEKERQEQLQKEQEKAFFAQLQLDEETGEFLPIQPAQHIQSETSGSANYSQVAHIPKSDALYFDDCMQLLAQTFPFVDDNEVSSATFQSLVPDIPGHIESPVFIATNQAQSPETSVAQVAPVDLDGMQQDIEQVWEELLSIPELQCLNIENDKLVETTMVPSPEAKLTEVDNYHFYSSIPSMEKEVGNCSPHFLNAFEDSFSSILSTEDPNQLTVNSLNSDATVNTDFGDEFYSAFIAEPSISNSMPSPATLSHSLSELLNGPIDVSDLSLCKAFNQNHPESTAEFNDSDSGISLNTSPSVASPEHSVESSSYGDTLLGLSDSEVEELDSAPGSVKQNGPKTPVHSSGDMVQPLSPSQGQSTHVHDAQCENTPEKELPVSPGHRKTPFTKDKHSSRLEAHLTRDELRAKALHIPFPVEKIINLPVVDFNEMMSKEQFNEAQLALIRDIRRRGKNKVAAQNCRKRKLENIVELEQDLDHLKDEKEKLLKEKGENDKSLHLLKKQLSTLYLEVFSMLRDEDGKPYSPSEYSLQQTRDGNVFLVPKSKKPDVKKN
Take B1: in the assay with OST-progerin (human), the NRF2 pulled down relative to OST-lamin A came out at 142%.

B2: recombinant HIS6x-NRF2 (natural protein)
chain: B1 chain
Turning to B2, in the assay with OST-progerin (human), the NRF2 bound relative to OST-lamin A amounted to 275%.
